According to doi:10.1101/2024.09.05.611430 (bioRxiv, 2024):
Several values for one entry are separate records, joined by “and”; a condition that tells them apart may be missing. Equal entries are not always repeated.

Molecular target: the molecule itself
Experiment: cryo-EM structure

B1: Mpn444 (Mycoplasma pneumoniae lipoprotein, recombinant, without the N-terminal signal sequence, aa 28-1325) (natural protein, UniProt P75334 28-1325, looked up)
chain: CAQPTASTVEGLFKPSSAFADRTDFSLSSILQKSLINRESFNQYLAMRLAPVLRTFYEDNYDTDIKERLNGFTADTDNAFVSQEQNLRNQFRENYLVHLQTDIFDNTGGNQAAWKLRDVNNKIIDDFISRIFAKNFVEYVQDGVGPLTKPTKSLIENTSNFKNIKLQPKFVNKNAKLKINNDAVYAAIQDKLLDQFITNENPNLVSRVVFTNETPVDGFDNYFNTKVIQSPTPSYQFQVFNKYNQQSGGTKGANGFNLLASNLKSYKNDQSKGIDIPNKFSSDSGGKLLLKASDMFDTFDPSFSAAFIQGYLALQKKSKGADSKEVDSLIKDKSIIENFFVDNNTQAAAAARAASSSSEGTIQLKTASDGGGTTQSTVHKTDLVKIFGDKDVFAGEYKQQIGNTNANQTGGGGSGGGGGTSTGSSTGSSTETTTGNSSKAVVDLIEVKKDSSSQPDYILSRGKDGIHLMAVDGGSHYLTESGRDVAKQKKFLLFRALQTKYGLVDTDTTYDFKLFDEVKKYFDTNRILFLFEALLDLSSDTNNKDNFLSYPQFKKFADSIKSIEKDLKELVQAHYKQAVFNETAVAENKVTLKLAERNQPFIDNERNNQIEQNGLAAKLPYEQDAKTGHYNDLGNYYKDIIDNVDKKGTSTVKTTSSNTGQTKNFSEEVVSKLKDNKKKVEEAAKKHVEALKVFTIPSPLYSQVILVQTKLSFTPESTSLGLNLALNNYLTSTELQNSIKLSYFQEDEAFKKIIDITNLTFSQQSGGTGGTNGNNNLTADNWKIFKETYLLDLFESQAQKSIFGHVGSSDKNSSTKTGIEGVLDTLYSSLNLEERLDSDDVIDYLSYLYTAHWLLKDNLKNYKQSLQSKLSRTSNAFLVWSVDSEKNKNDSQSTLSSTASSTSNTGLIQLRSVVSLAQNQAAGQGGDNNSDITQTEVKNPNFVFGSSVYDWTNSKTPEVNRAADDTSSFFYTKSSSSSTGAAQSSATVLRSLNQASGMTTKTAKNRYGFRGIVTSSTSGSLPEAVSRRLFKQFVNQTEKGVKVGGQMLITTAKSGKATLVLKQQADDAESTTNNAYKGALFSFGSMDNLKNIINGIQTQTEFDALYNHLTSDLNIDVTGVDKNKTLTEQKTSLTSFVDSNFKQSTQSAQRGDTSARSARSATVQIKKTQEDNQNTNYKDVFSRFDGYIGDNKVEEKNYTSYQFLSDGGKYHATFVKQVNLDDVEKIGTDSLKQEDSSKDKRLNLSLEEFLAAIALEALDPNNQTQAINALISGNKKGLVKVGDFRIFSSISAQWVRRF
B1 was tested, and the “stoichiometry N” value was 3 and 2.
